Source: patent US20190106487A1 (Sanofi, published 2019)
Values belong to the binder of their own block, whether it stands above or below them.

Legend:
[1] = target: T1, human IL-1RAcP on 293T/17-FR cells (human, UniProt Q9NPH3 21-570); test: cell-based or functional assay
T1 sequence (looked up): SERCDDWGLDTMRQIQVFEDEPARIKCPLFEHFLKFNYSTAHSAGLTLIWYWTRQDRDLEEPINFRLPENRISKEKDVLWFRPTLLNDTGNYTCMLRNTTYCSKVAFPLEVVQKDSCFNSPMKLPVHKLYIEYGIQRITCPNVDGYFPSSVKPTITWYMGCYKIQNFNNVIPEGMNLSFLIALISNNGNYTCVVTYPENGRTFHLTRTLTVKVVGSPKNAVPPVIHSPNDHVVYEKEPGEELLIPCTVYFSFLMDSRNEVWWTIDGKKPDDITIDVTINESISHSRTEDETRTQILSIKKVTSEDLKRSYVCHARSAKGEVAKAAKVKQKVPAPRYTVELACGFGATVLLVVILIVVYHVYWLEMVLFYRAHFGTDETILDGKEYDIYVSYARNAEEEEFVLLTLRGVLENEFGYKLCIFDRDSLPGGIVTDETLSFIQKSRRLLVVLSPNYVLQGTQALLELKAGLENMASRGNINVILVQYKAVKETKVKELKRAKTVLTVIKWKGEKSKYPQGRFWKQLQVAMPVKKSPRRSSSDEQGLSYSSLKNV

[2] = target: T2, rhIL-1RAcP/Fc Chimera (human, UniProt Q9NPH3 21-359); test: ELISA, primary supernatant, coated hu-IL-1RAcP-Fc
T2 construct: also called P013_03; P013-03
T2 sequence (looked up): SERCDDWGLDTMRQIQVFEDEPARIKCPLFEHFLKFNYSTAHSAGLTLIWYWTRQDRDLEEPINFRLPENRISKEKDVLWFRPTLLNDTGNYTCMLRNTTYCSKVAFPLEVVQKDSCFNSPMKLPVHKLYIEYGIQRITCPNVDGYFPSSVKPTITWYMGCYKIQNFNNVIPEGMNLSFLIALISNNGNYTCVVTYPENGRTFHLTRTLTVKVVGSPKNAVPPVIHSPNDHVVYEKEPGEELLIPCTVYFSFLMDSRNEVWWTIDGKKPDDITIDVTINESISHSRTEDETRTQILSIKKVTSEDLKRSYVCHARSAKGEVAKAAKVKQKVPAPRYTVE
Text: Microtiter plates were coated IL-1RACP and/or IL12Rβ1 protein (recombinant Fc chimeric conjugates of human IL-1RACP or IL12Rβ1). After a blocking process, specific antibodies from B-cell supernatants bind to the targets and are then detected by a POD-labeled anti-rabbit IgG antibody. The IL12Rβ1 binding was used as a counterscreen. IL-1RACP protein was tagged with a linker, huFc and His like the IL12Rβ1 protein. Antibodies which bind to the tag were positive in both assays, whereas antigen specific antibodies just bound to IL-1RACP and not to IL12Rβ1.
12.5 μL 0.5 μg/mL IL-1RACP protein in PBS was transferred to a microtiter plate, incubated and washed 3× with Wash Buffer. 90 μL Block Buffer was added to each well, incubated and washed. 12.5 μl Standard Antibody (rabbit mAb against IL-1RAcP, anti IL12Rbeta1 antibody: IL-12Rbeta1 antibody; GeneTex; Cat. No. GTX103917) or sample diluted in ELISA buffer was added, incubated and washed. 12.5 μl 1:5000 POD-Antibody (Anti-rabbit IgG, peroxidase-linked species-specific Fab2 fragment (from donkey) (ECL); assay dilution: 1:5000) in Elisa Buffer was added, incubated and washed. 15 μl TMB was added and 15 μl HCl was added after sufficient development. Absorbance (Optical Density O.D.) was read at 450 nm/620 nm.

[3] = target: T3, mIL1RAcP-Fc (murine, UniProt Q61730 21-359); test: ELISA, primary supernatant, coated mu-IL-1RAcP-Fc
T3 construct: also called P013_04; P013-04
T3 sequence (looked up): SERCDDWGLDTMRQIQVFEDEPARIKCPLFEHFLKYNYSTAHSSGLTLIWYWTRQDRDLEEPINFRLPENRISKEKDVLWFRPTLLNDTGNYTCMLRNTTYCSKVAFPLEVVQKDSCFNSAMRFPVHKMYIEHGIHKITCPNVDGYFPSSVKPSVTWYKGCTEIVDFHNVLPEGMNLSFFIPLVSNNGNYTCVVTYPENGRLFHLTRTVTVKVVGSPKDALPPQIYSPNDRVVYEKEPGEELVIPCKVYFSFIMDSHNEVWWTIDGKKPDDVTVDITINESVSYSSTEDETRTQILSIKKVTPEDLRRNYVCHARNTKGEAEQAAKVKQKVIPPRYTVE

[4] = target: T2, rhIL-1RAcP/Fc Chimera; test: ELISA, recombinant purified mAb

functional reporter gene assay (% inhibition), 0.04 µg/mL mAb [1]: 39%
functional reporter gene assay (% inhibition), 0.2 µg/mL mAb [1]: 62%
functional reporter gene assay (% inhibition), 1 µg/mL mAb [1]: 88%
functional reporter gene assay (% inhibition), 5 µg/mL mAb [1]: 98%
primary supernatant functional assay (% inh.), NF-kB luciferase reporter [1]: 88%
EC50 [4]: 0.072 µg/mL
hu-IL1RaP ELISA (OD) [2]: 3.3 OD
B4: P013.S.01.B.E04 (antibody, V domains shown)
VH: QSVEESGGRLVTPGTPLTLTCTVSGIDLNSNGINWVRQAPGKGLEWIGYIGAGDITYCASWAKGRFTISKTSSTTVDLKITSLTTEDTATYFCARWGPGALDLWGQGTLVTVSS
VL: AQVLTQTASSVSATVGGTVTISCQSSQSVYNNNYLSWYQQKPGQPPKLLIYKASTLASGVPLRFSGSGSGTQFTLTISGVQSDDAATYYCAGFYETTDVGFGGGTEVVVK
notes: rabbit monoclonal antibody; also called P013.A.00109.D07

functional reporter gene assay (% inhibition), 0.04 µg/mL mAb [1]: 44%
functional reporter gene assay (% inhibition), 0.2 µg/mL mAb [1]: 60%
functional reporter gene assay (% inhibition), 1 µg/mL mAb [1]: 93%
functional reporter gene assay (% inhibition), 5 µg/mL mAb [1]: 91%
primary supernatant functional assay (% inh.), NF-kB luciferase reporter [1]: 72%
EC50 [4]: 0.447 µg/mL
hu-IL1RaP ELISA (OD) [2]: 3.4 OD
B6: P013.S.01.B.E06 (antibody, V domains shown)
VH: QSLEESGGDLVKPGASLTLTCTASGFSFSSTYYMCWVRQAPGKGLEWIACIYAGSSGSTYYASWAKGRFTISKTSSTTVTLQMTSLTAADTATYFCARVDGSSSGSWDLWGPGTLVTVSS
VL: AIEMTQTPSSVSAAVGGTVTINCQASQNIYSNLAWYQQKPGQRPKLLIYAASLLASGVPSRFKGNGSGTEYTLTISDLESADAATYYCQGAVYSGNTEWAFGGGTEVVVK
notes: rabbit monoclonal antibody; also called P013.A.00030.F07

functional reporter gene assay (% inhibition), 0.04 µg/mL mAb [1]: 1%
functional reporter gene assay (% inhibition), 0.2 µg/mL mAb [1]: 1%
functional reporter gene assay (% inhibition), 1 µg/mL mAb [1]: 10%
functional reporter gene assay (% inhibition), 5 µg/mL mAb [1]: -5%
primary supernatant functional assay (% inh.), NF-kB luciferase reporter [1]: -36%
hu-IL1RaP ELISA (OD) [2]: 2.2 OD
mu-IL1RaP ELISA (OD) [3]: 0.4 OD
B7: P013.S.02.B.G01 (antibody, V domains shown)
VH: QSVEESGGRLVTPGGSLTLTCKVSGFSLSDYDIYWVRQAPGKGLEWIGVIDIENSVYYPTWAKGRFTISKTSTTVDLKITSPTTEDTATYFCARGDYIMTLDLWGQGTLVTVSS
VL: AAVLTQTPSPVSAAVGGTVTISCQASQSVYKNNRLAWYQQKPGQPPKLLIYLASTLASGVPSRFKGSGSGTQFTLTISDLESDDAATYYCAGGYSTISENAFGGGTEVVVK
notes: rabbit monoclonal antibody; also called P013.A.00015.G07

The next lines start with the binder.

B1: P013.S.01.B.B05 (antibody, V domains shown)
VH: QSLEESGGRLVTPGTPLTLTCTASGFSLSSYYMSWVRQAPGKGLEWVGIISGSASTYYATWAKGRFTISKTSTTVDLKIASPTTEDTATYFCARTHYAAVAGYGYASRLDLWGQGTLVTVSS
VL: AIEMTQSPPSLSASVGETVRIRCLASEDIYSGISWYQQKPGKPPTLLIYAASNLESGVPPRFSGSGSGTDYTLTIGGVQAEDAATYYCLGGYSYSNTGPTFGAGTKVEIK
notes: rabbit monoclonal antibody; also called P013.A.00030.D07
functional reporter gene assay (% inhibition), 0.04 µg/mL mAb [1]: 52%
functional reporter gene assay (% inhibition), 0.2 µg/mL mAb [1]: 81%
functional reporter gene assay (% inhibition), 1 µg/mL mAb [1]: 93%
functional reporter gene assay (% inhibition), 5 µg/mL mAb [1]: 96%
primary supernatant functional assay (% inh.), NF-kB luciferase reporter [1]: 85%
hu-IL1RaP ELISA (OD) [2]: 3.3 OD
mu-IL1RaP ELISA (OD) [3]: 0.1 OD

B2: P013.S.02.B.G03 (antibody, V domains shown)
VH: QSVEESGGRLVTPGTPLTLTCTVSGFSLSSYGMIWVRQAPGEGLEWIGFIGRGGATWYASWVKGRFTISKTSTTVDLKITSPTASDTATYFCARDGDSSDYYAFNLWGQGTLVTVSS
VL: DVVMTQTPASVSEPVGGTVTIKCQASQNIGSNLAWYQQRSGQPPKLLIYGASTLASGVPSRFSGSGSGTEFTLTISGVQSADAATYFCQCSGYDITGVFPFGGGSEVVVK
notes: rabbit monoclonal antibody; also called P013.A.00014.D07
functional reporter gene assay (% inhibition), 0.04 µg/mL mAb [1]: 6%
functional reporter gene assay (% inhibition), 0.2 µg/mL mAb [1]: 0%
functional reporter gene assay (% inhibition), 1 µg/mL mAb [1]: 5%
functional reporter gene assay (% inhibition), 5 µg/mL mAb [1]: 17%
primary supernatant functional assay (% inh.), NF-kB luciferase reporter [1]: -39%
hu-IL1RaP ELISA (OD) [2]: 1.4 OD
mu-IL1RaP ELISA (OD) [3]: 1.1 OD

B3: P013.S.02.B.H02 (antibody, V domains shown)
VH: QSLEESGGRLVTPGTPLTLTCTVSGFSLSSCAMIWVRQAPGKGLEWIGFIGRGGSTWYASWVNGRFTISKTSTTVDLKITSPTTEDTATYFCARDGDFSDYYTFNLWGQGTLVTVSS
VL: DVVMTQTPASVSEPVGGTVTIKCQASQNIGSNLAWYQQKPGQPPKLLIYGASTLASGVPSRFSGSGSGTEFTLTISGVQSADATTYYCQCSGYDTTGVFPFGGGSEVVVR
notes: rabbit monoclonal antibody; also called P013.A.00015.B10
functional reporter gene assay (% inhibition), 0.04 µg/mL mAb [1]: 25%
functional reporter gene assay (% inhibition), 0.2 µg/mL mAb [1]: -2%
functional reporter gene assay (% inhibition), 1 µg/mL mAb [1]: 28%
functional reporter gene assay (% inhibition), 5 µg/mL mAb [1]: 28%
primary supernatant functional assay (% inh.), NF-kB luciferase reporter [1]: 36%
hu-IL1RaP ELISA (OD) [2]: 3 OD
mu-IL1RaP ELISA (OD) [3]: 0.8 OD

B5: P013.S.02.B.D04 (antibody, V domains shown)
VH: QSLEESGGDLVQPGGSLTLTCKASGFSFSASYWICWVRQAPGKGLEWIGCIYIGGGGRYYASWAKGRFTISKTSSTTVTLQMTSLTAADTATYFCARDPVTSGSDYVYDLWGPGTLVTVAS
VL: AYDMTQTPASVEVAVGGTVTIKCQASESISTWLAWYQQKPGQPPNLLIYRASTLASGVPSRFYGSGYGTEFTLTISGVESADAATYYCQQGYTVNNIDNVFGGGTEVVVK
notes: rabbit monoclonal antibody; also called P013.A.00086.A06
functional reporter gene assay (% inhibition), 0.04 µg/mL mAb [1]: 4%
functional reporter gene assay (% inhibition), 0.2 µg/mL mAb [1]: 19%
functional reporter gene assay (% inhibition), 1 µg/mL mAb [1]: 47%
functional reporter gene assay (% inhibition), 5 µg/mL mAb [1]: 87%
primary supernatant functional assay (% inh.), NF-kB luciferase reporter [1]: 88%
hu-IL1RaP ELISA (OD) [2]: 3.6 OD
mu-IL1RaP ELISA (OD) [3]: 0 OD

B8: P013.S.01.B.F04 (antibody, V domains shown)
VH: LEQSGGGAEGGLVKPGGSLELCCKASGFSLSTSYWRCWVRQAPGKGLEWIGCIYAGSSDATYYANWVNGRFTLSRDIDQSTGCLQLNSLTAADTAMYYCASGVGFGYFNLWGQGTLVTVSS
VL: ALVMTQTPSPVSAAVGGTVTINCQASEDIYSNLAWFQQKPGQPPKLLIYDASTLASGVPSRFSGSGSGTEFTLTISGLQSDDAATYYCLGVYTHISADNAFGGGTEVVVK
notes: rabbit monoclonal antibody; also called P013.A.00133.A12
functional reporter gene assay (% inhibition), 0.04 µg/mL mAb [1]: 38%
functional reporter gene assay (% inhibition), 0.2 µg/mL mAb [1]: 58%
functional reporter gene assay (% inhibition), 1 µg/mL mAb [1]: 95%
functional reporter gene assay (% inhibition), 5 µg/mL mAb [1]: 96%
primary supernatant functional assay (% inh.), NF-kB luciferase reporter [1]: 97%
EC50 [4]: 0.046 µg/mL
hu-IL1RaP ELISA (OD) [2]: 3.6 OD
mu-IL1RaP ELISA (OD) [3]: 0.3 OD
